Measured values taken from publication doi:10.1101/2024.09.25.614892 (bioRxiv, 2024).
Where two headings read alike, the source gives them in different places.

B1: FliD (flagellar filament cap protein) of Campylobacter jejuni (natural protein, UniProt Q9PHW6 1-642, looked up)
chain: MAFGSLSSLGFGSGVLTQDTIDKLKEAEQKARIDPYTKKIEENTTKQKDLTEIKTKLLSFQTAVSSLADATVFAKRKVVGSISDNPPASLTVNSGVALQSMNINVTQLAQKDVYQSKGLANDGGFVNAQLNGTADLTFFSNGKEYTVTVDKNTTYRDLADKINEASGGEIVAKIVNTGEKGTPYRLTLTSKETGEDSAISFYAGKKDSNGKYQKDINAEKIFDDLGWGLDVSASIDPDKDKKGYGIKDASLHIQTAQNAEFTLDGIKMFRSSNTVTDLGVGMTLTLNKTGEINFDVQQDFEGVTKAMQDLVDAYNDLVTNLNAATDYNSETGTKGTLQGISEVNSIRSSILADLFDSQVVDGTTEDANGNKVNTKVMLSMQDFGLSLNDAGTLSFDSSKFEQKVKEDPDSTESFFSNITKYEDINHTGEVIKTGSLSKYLNSNGGNTNGLEFKPGDFTIVFNNQTYDLSKNSDGTNFKLTGKTEEELLQNLANHINSKGIEGLKVKVESYNQNNVTGFRLNFSGDGSSDFSIKGDANILKELGLSDVNITSKPIEGKGIFSKLKATLQEMTGKDGSITKYDESLTNDIKSLNTSKDSTQAMIDTRYDTMANQWLQYESILNKLNQQLNTVTNMINAANNSNN
B2: FlgL (hook-filament junction protein) of Salmonella enterica (natural protein, UniProt P16326 1-317, looked up)
chain: MRISTQMMYEQNMSGITNSQAEWMKLGEQMSTGKRVTNPSDDPIAASQAVVLSQAQAQNSQYALARTFATQKVSLEESVLSQVTTAIQTAQEKIVYAGNGTLSDDDRASLATDLQGIRDQLMNLANSTDGNGRYIFAGYKTEAAPFDQATGGYHGGEKSVTQQVDSARTMVIGHTGAQIFNSITSNAVPEPDGSDSEKNLFVMLDTAIAALKTPVEGNNVEKEKAAAAIDKTNRGLKNSLNNVLTVRAELGTQLSELSTLDSLGSDRALGQKLQMSNLVDVDWNSVISSYVMQQAALQASYKTFTDMQGMSLFQLNR
B3: FlgK (hook-filament junction protein) of Salmonella enterica (natural protein, UniProt P0A1J5 1-553, looked up)
chain: MSSLINHAMSGLNAAQAALNTVSNNINNYNVAGYTRQTTILAQANSTLGAGGWIGNGVYVSGVQREYDAFITNQLRGAQNQSSGLTTRYEQMSKIDNLLADKSSSLSGSLQSFFTSLQTLVSNAEDPAARQALIGKAEGLVNQFKTTDQYLRDQDKQVNIAIGSSVAQINNYAKQIANLNDQISRMTGVGAGASPNDLLDQRDQLVSELNKIVGVEVSVQDGGTYNLTMANGYTLVQGSTARQLAAVPSSADPTRTTVAYVDEAAGNIEIPEKLLNTGSLGGLLTFRSQDLDQTRNTLGQLALAFADAFNAQHTKGYDADGNKGKDFFSIGSPVVYSNSNNADKTVSLTAKVVDSTKVQATDYKIVFDGTDWQVTRTADNTTFTATKDADGKLEIDGLKVTVGTGAQKNDSFLLKPVSNAIVDMNVKVTNEAEIAMASESKLDPDVDTGDSDNRNGQALLDLQNSNVVGGNKTFNDAYATLVSDVGNKTSTLKTSSTTQANVVKQLYKQQQSVSGVNLDEEYGNLQRYQQYYLANAQVLQTANALFDALLNIR
B4: FlgE (flagellar hook protein) of Salmonella enterica (natural protein, UniProt P0A1J1 1-403, looked up)
chain: MSFSQAVSGLNAAATNLDVIGNNIANSATYGFKSGTASFADMFAGSKVGLGVKVAGITQDFTDGTTTNTGRGLDVAISQNGFFRLVDSNGSVFYSRNGQFKLDENRNLVNMQGMQLTGYPATGTPPTIQQGANPAPITIPNTLMAAKSTTTASMQINLNSTDPVPSKTPFSVSDADSYNKKGTVTVYDSQGNAHDMNVYFVKTKDNEWAVYTHDSSDPAATAPTTASTTLKFNENGILESGGTVNITTGTINGATAATFSLSFLNSMQQNTGANNIVATNQNGYKPGDLVSYQINNDGTVVGNYSNEQEQVLGQIVLANFANNEGLASQGDNVWAATQASGVALLGTAGSGNFGKLTNGALEASNVDLSKELVNMIVAQRNYQSNAQTIKTQDQILNTLVNLR
B5: FliC (flagellin) of Salmonella enterica (natural protein, UniProt P06179 1-495, looked up)
chain: MAQVINTNSLSLLTQNNLNKSQSALGTAIERLSSGLRINSAKDDAAGQAIANRFTANIKGLTQASRNANDGISIAQTTEGALNEINNNLQRVRELAVQSANSTNSQSDLDSIQAEITQRLNEIDRVSGQTQFNGVKVLAQDNTLTIQVGANDGETIDIDLKQINSQTLGLDTLNVQQKYKVSDTAATVTGYADTTIALDNSTFKASATGLGGTDQKIDGDLKFDDTTGKYYAKVTVTGGTGKDGYYEVSVDKTNGEVTLAGGATSPLTGGLPATATEDVKNVQVANADLTEAKAALTAAGVTGTASVVKMSYTDNNGKTIDGGLAVKVGDDYYSATQNKDGSISINTTKYTADDGTSKTALNKLGGADGKTEVVSIGGKTYAASKAEGHNFKAQPDLAEAAATTTENPLQKIDAALAQVDTLRSDLGAVQNRFNSAITNLGNTVNNLTSARSRIEDSDYATEVSNMSRAQILQQAGTSVLAQANQVPQNVLSLLR
B6: FlgL (hook-filament junction protein) of Campylobacter jejuni (natural protein, UniProt A0A5T0WDM5 1-750, looked up)
chain: MRITNKLNFTNSVNNSMGGQSALYQISQQLASGLKIQNSYEDASTYIDNTRLEYEIKTLEQVKESTSRAQEMTQNSMKALQDMVKLLEDFKVKVTQAASDSNSQTSREAIAKELERIKESIVQLANTSVNGQYLFAGSQVANKPFDSNGNYYGDKNNINVVTGAGTESPYNIPGWDLFFKADGDYKKQISTNVSFTDNRWDLNKDPDKTKYLTGDSKWQQLIGQGYVKDNSLDADKDFEYDDSKLDFPPTTLYVQGTKPDGTSFKSAVLVKPEDTLEDVMENIGALYGNTPNNKVVEVSMNDSGQIQITDLKQGNNKLDFHAVAFTPQADTKDELKNIIEAANQEGISMNEVTNRVMQAATAAPSNGDITKLNNPVTVTINNQQFTIDLKQTDFIKSKMTDTDGNAANGADYDNVYFEKNGNTVYGNVSQVIKGSNAYATDSTKLSEVMAGDSLNGTTLNLKVNSKGGNSYDVTINLQTSTVSYPDPNNPGQTISFPIMHTNPATGNSGVVTGSNDITYGQINDIIGMFAADKIPTTTIQANNGQINNADYTQIQQLMKDSQATVDVSMDYKGRISVTDKLSSGTNIEISLSDSQSGQFPAPPFTTTSTVQNGPNFSFSANNSLTIDEPNVDIIKDLDSMIDAVLKGNMRADSESENPRNTGMQGALERLDHLADHVSKLNTTMGAYHNTIEGVNTRTSFLSVNVQSIKSNVIDVDYGEAMMNLMQVQLAYQASLKASTTISQLSLLNYM
B7: FliD (flagellar filament cap protein) of Salmonella enterica (natural protein, UniProt P16328 1-467, looked up)
chain: MASISSLGVGSNLPLDQLLTDLTKNEKGRLTPITKQQSANSAKLTAYGTLKSALEKFQTANTALNKADLFKSTVASSTTEDLKVSTTAGAAAGTYKINVTQLAAAQSLATKTTFATTKEQLGDTSVTSRTIKIEQPGRKEPLEIKLDKGDTSMEAIRDAINDADSGIAASIVKVKENEFQLVLTANSGTDNTMKITVEGDTKLNDLLAYDSTTNTGNMQELVKAENAKLNVNGIDIERQSNTVTDAPQGITLTLTKKVTDATVTVTKDDTKAKEAIKSWVDAYNSLVDTFSSLTKYTAVEPGEEASDKNGALLGDSVVRTIQTGIRAQFANSGSNSAFKTMAEIGITQDGTSGKLKIDDDKLTKVLKDNTAAARELLVGDGKETGITTKIATEVKSYLADDGIIDNAQDNVNATLKSLTKQYLSVSNSIDETVARYKAQFTQLDTMMSKLNNTSSYLTQQFTAMNKS
B8: FlgK (hook-filament junction protein) of Campylobacter jejuni (natural protein, UniProt Q0P8E9 1-608, looked up)
chain: MGIFGTLYTGVTGLKASEVQIATTGNNISNANATFYTRQRVVQTTNGYITTGGVQVGTGTAVESIVRLHDEYSYYKLKGASTQLEYTKYMASTLQEIAQRFPDLQNTGILQDLENYNKAWNDFASNPNENATKIALVKASQTLTESVNNTFATLDKIQKKVNDDIKNTVDEINRIGEEIATINKQIYGQEALPTEHANELRDRRDELELTLSKLVSAVASKNEINQDNRLDTTITDPGHQYNLSIEGFSIVDGINFHPLKLDYDDKNKSYSIYYETPDEKVRDLTAKISGGQLGAQLDLRGRNYSKSEGKYEDGIIQGYMDSLDTFAKTMINETNNLYASSAKSSVTSDYLSGLKGDIPLVNYDRTIQPGSFDIVIYDDKGDKKLTKTITIDVNTTMNDIMRQINANTDDNDNKNSNDDVDDHINASFSYDAKTGDGLFQINAKSGFKVAIEDKGTNFAGAFSIGGFFSGTDASDMKVKDSILNDPSTVRASSNGVDSGNDMANKIIQLQYKKVNFYNEDGTIDNLTMEEYYRKLTGKIASDGENNNVVNSSNETLYNSVYSEYQSKSGVNTNEELAALIQYQSSYGAAAKIVSTVDQMLDTLLGLKS

Tests used:
Assay in all cases: cryo-EM structure
[1] = target: the molecule itself
[2] = target: the molecule itself; remark: listed apart in the source
[3] = target: B5
[4] = target: the molecule itself; remark: listed apart in the source
[5] = target: B5; remark: listed apart in the source

B1
stoichiometry N [1]: 5 subunits

B2
stoichiometry N [2]: 11 subunits | binding result [3]: binds

B3
stoichiometry N [2]: 11 subunits

B4
binding result [2]: binds

B5
binding result [2]: binds

B6
stoichiometry N [1]: 11 subunits

B7
stoichiometry N [4]: 5 subunits | binding result [5]: binds

B8
stoichiometry N [1]: 11 subunits
